Experiment [1] relates to FL−/− primary hematopoietic progenitor cells expressing FLT3/ITD or FLT3/TKD. The experiment is described as follows: Colony-replating assay of FL−/− bone marrow progenitors transduced with FLT3 mutants, with FL. Format: cell-based, mice. From the text: Bone marrow was harvested from FL^−/− mice, lineage depleted (Lineage Cell Depletion kit; Militenyibi Biotec, Auburn Calif.), and transduced with EF1-ITD-UBC-GFP, EF1-TKD-UBC-GFP, or EF1-UBC-GFP lentivirus by 3 rounds of spin-infection on days 1, 2 and 3. The EF1-ITD-UBC-GFP vector was constructed by inserting full-length FLT3/ITD in EF1-UBC-GFP lentiviral vector. The EF1-TKD-UBC-GFP was constructed by inserting wtFLT3 into the EF1-UBC-GFP followed by mutagenesis of wtFLT3 to substitute nucleotide G of D835 with T resulting in an Aspartic acid to Tyrosine change (QuickChange Site-Directed Mutagenesis Kit; Stratagene, La Jolla, Calif.). GFP positive cells were then sorted by FACS. 10^3 cells were plated into triplicate 35 mm Petri dishes (Nunc) in 1 ml of Methocult M3434 (StemCell Technologies Inc., Vancouver) containing 50 ng/mL rm SCF, 10 ng/mL rm IL-3, 10 ng/mL rh IL-6, and 3 units/mL rh Erythropoietin. Cultures were incubated at 37° C. in a humidified atmosphere of 5% CO2, and colonies consisting of >35 cells were scored after 9-11 days. For the colony-replating assay all cells from the previous culture were collected and re-plated at 1×10^4 cells/plate in fresh methylcellulose medium. All cells were replated three times.
To evaluate the effect of FL stimulation on primary hematopoietic progenitor cells expressing FLT3 mutants, lineage negative progenitors were harvested from FL^−/− mice and transduced with FLT3/ITD-GFP, FLT3/TKD-GFP, or GFP control lentivirus. GFP-positive cells were selected by FACS, cultured in methylcellulose with and without FL, and the colony numbers were counted after 9 days.
After colonies were counted, all of the cells in each culture dish were harvested from the methylcellulose, washed and re-plated in fresh methylcellulose medium to examine their potential to form colonies upon secondary plating; this process was repeated for two more passages to determine the frequency of tertiary and quaternary colonies. […]

The next experiment deals with MV411 cells. The experiment is described as follows: Survival (MTT) of MV411 cells with FL. The conditions noted are these: MV411, serum-free, 4 days. Format: cell-based, human. The protocol:
2×10^4 cells in 100 μl serum-free medium were plated into triplicate wells of 96-well plates. Survival was assessed by MTT assay (Roche, Indianapolis, Ind.) and viable cell number counting by trypan blue (GIBCO, Rockville, Md.) exclusion according to the manufacturer's instructions.
The MV411 cell line is a human leukemia-derived cell line expressing a FLT3/ITD mutation and has lost the wild-type allele. […] MV411 cells express endogenous FL that might diminish the degree of the effect of exogenous FL on FLT3/ITD mutant receptor. To evaluate the effect of FL on the survival of MV411 cells, MV411 cells were cultured in serum-free medium in the presence and absence of FL for 4 days.

Experiment [2] concerns STAT5 and AKT phosphorylation. The experiment is described as follows: FL stimulation, downstream signaling immunoblot in TF1/ITD and TF1/TKD cells. Format: cell-based. As to the method: (§1) TF1 and BaF3 cells were transfected with pCINeo constructs containing either FLT3/ITD or FLT3/TKD mutation by electroporation (Bio-Rad, Hercules, Calif.). Stable transfectants were then selected by limiting dilution in 96-well plates with 1 mg/mL G418 (Invitrogen, Carlsbad, Calif.).
The possibility of further activation of FLT3 mutant receptors by exogenous FL was also tested in cell lines in which FL autocrine, paracrine, or intracrine stimulation of FLT3 receptor might exist. […] TF1 cells expressing FLT3 mutant receptors were starved for 16 hours in serum-free medium and washed once with PBS to deplete soluble FL (either produced by the cells or contained in the serum). These cells were then stimulated with exogenous FL for 15 minutes. More than 2-fold enhancement of FLT3 phosphorylation was detected in both TF1/ITD and TF1/TKD cell lines (FIG. 12A). […] To assess the functional effect of exogenous FL, TF1/ITD and TF1/TKD cells were cultured in serum-free medium in the absence and presence of FL for 48 hours. Apoptosis was assessed by Annexin V and 7AAD staining followed by FACS analysis. […] There was no change of cell cycle status in response to FL in these cells (data not shown).

Experiment [3] has as its system FLT3/ITD in primary AML blasts. The experiment is described as follows: FL stimulation, FLT3 phosphorylation in primary AML blasts with homozygous FLT3/ITD. Format: cell-based, human. The conditions noted are these: 100 ng/mL FL. The protocol:
(§2) To study whether further activation of mutant FLT3 receptors in response to FL also occurs in primary cells, experiments were carried on primary AML blasts expressing homozygous FLT3/ITD mutations (i.e., no detectable wild type FLT3 by PCR). The blasts were stimulated with 100 ng/mL FL. […] The survival of AML blasts was assessed by culturing them in complete medium with and without FL for 4 days.

Experiment [4] deals with FLT3/ITD and FLT3/TKD in BaF3 cells. The experiment is described as follows: FL stimulation, FLT3 phosphorylation in BaF3/ITD and BaF3/TKD cells. Format: cell-based. As to the method:
as §1
(§3) BaF3 is another cell line lacking expression of endogenous FLT3. BaF3 cells transfected with mutant forms of FLT3 were starved in serum-free medium for 16 hours and washed with PBS before FL stimulation. […] Changes of other FLT3 downstream signals were not observed. An MTT survival assay was performed in BaF3/ITD and BaF3/TKD cells cultured in serum-free medium in the presence and absence of FL for 4 days. […] The effect was also confirmed by counting viable cell numbers by trypan blue exclusion (FIG. 13C, P<0.05). These findings indicate that FL stimulation prolongs the survival of cells expressing FLT3 mutants.

In experiment [5] the test system is AKT and MAPK phosphorylation. The experiment is described as follows: FL stimulation, downstream signaling immunoblot in BaF3/ITD and BaF3/TKD cells. The class given is cell-based. As to the method: as §1, §3
For orientation: Immunoblotting shows a protein as a band on a membrane.

A further experiment deals with MAPK phosphorylation. Description: FL stimulation, MAPK phosphorylation in primary AML blasts with homozygous FLT3/ITD. Format: cell-based, human. The conditions noted are these: 100 ng/mL FL. The protocol:
as §2

Data on one molecule can be found in US20130156764A1, “NEUTRALIZATION OF FLT3 LIGAND AS A LEUKEMIA THERAPY” (The Johns Hopkins University, priority 2010, published 2013).

B1: FL: Recombinant human FL (fms-related tyrosine kinase ligand) purchased from PeproTech; SEQ ID NO: 1 (protein, listed as Homo sapiens)
chain: MTVLAPAWSPTTYLLLLLLLSSGLSGTQDCSFQHSPISSDFAVKIRELSDYLLQDYPVTVASNLQDEELCGGLWRLVLAQRWMERLKTVAGSKMQGLLERVNTEIHFVTKCAFQPPPSCLRFVQTNISRLLQETSEQLVALKPWITRQNFSRCLELQCQPDSSTLPPPWSPRPLEATAPTAPQPPLLLLLLLPVGLLLLAAAWCLHWQRTRRRTPRPGEQVPPVPSPQDLLLVEH
As for B1, the “number of first-generation colonies” value in experiment [1] (BM cells transduced with FLT3 mutants, 9 days) was “slightly increased”. Besides, in experiment [1] (BM cells transduced with FLT3 mutants, cultured in presence of FL), the “re-plating activity upon serial passages” value is “retained their re-plating activity”. The colony size entry in experiment [1] (FL−/− BM cells expressing FLT3 mutants stimulated with FL) is reported as “significant increase in colony size”. Also, in the experiment with MV411 cells, the survival result was “prolonged survival”. In experiment [2] (TF1/ITD and TF1/TKD after FL stimulation), the “AKT phosphorylation and AKT protein expression” value is recorded as “Slightly increased”. For the same molecule, in experiment [2] (both TF1/ITD and TF1/TKD), the STAT5 phosphorylation increase was 1.8 fold. For the same molecule, the FLT3 phosphorylation entry in experiment [3] is given as “enhanced FLT3 phosphorylation”; in experiment [4] it was “increased FLT3 phosphorylation”. The results for the “increase of phosphorylation of AKT” value in experiment [5] (BaF3/ITD) and in experiment [5] (BaF3/TKD) were 1.3 fold and 2.2 fold, respectively. Besides, the MAPK phosphorylation result in experiment [5] (BaF3/ITD and BaF3/TKD) is “increase of MAPK phosphorylation”. In addition, in the experiment on MAPK phosphorylation, the “samples with increased MAPK phosphorylation” value is “two out of four samples”.
